# Assay results as given in patent publication US20220259289A1 (Janssen / Centocor, published 2022).
# Key:
# [1] = target: unrelated Fc-fused recombinant protein; assay: ELISA, negative control Fc protein
# human serum albumin [2] = target: T1, human serum albumin (human, UniProt P02768 25-609); assay: ELISA, negative control HSA
# T1 construct: Negative control of the ELISA; also called HSA
# Protocol: (§1) Streptavidin-coated Maxisorp plates (Nunc catalog 436110) were blocked for 1 h in Starting Block T20 (Pierce) and then coated with biotinylated CD137 (using same antigen as in panning) or negative controls (an unrelated Fc-fused recombinant protein and human serum albumin) for 1 h. Plates were rinsed with TBST and diluted lysate was applied to plates for 1 h. Following additional rinses, wells were treated with HRP-conjugated anti-Centyrin antibody (PAB25) for 1 h and then assayed with POD (Roche catalog 11582950001).
# T1 sequence (P02768 25-609 limits assumed): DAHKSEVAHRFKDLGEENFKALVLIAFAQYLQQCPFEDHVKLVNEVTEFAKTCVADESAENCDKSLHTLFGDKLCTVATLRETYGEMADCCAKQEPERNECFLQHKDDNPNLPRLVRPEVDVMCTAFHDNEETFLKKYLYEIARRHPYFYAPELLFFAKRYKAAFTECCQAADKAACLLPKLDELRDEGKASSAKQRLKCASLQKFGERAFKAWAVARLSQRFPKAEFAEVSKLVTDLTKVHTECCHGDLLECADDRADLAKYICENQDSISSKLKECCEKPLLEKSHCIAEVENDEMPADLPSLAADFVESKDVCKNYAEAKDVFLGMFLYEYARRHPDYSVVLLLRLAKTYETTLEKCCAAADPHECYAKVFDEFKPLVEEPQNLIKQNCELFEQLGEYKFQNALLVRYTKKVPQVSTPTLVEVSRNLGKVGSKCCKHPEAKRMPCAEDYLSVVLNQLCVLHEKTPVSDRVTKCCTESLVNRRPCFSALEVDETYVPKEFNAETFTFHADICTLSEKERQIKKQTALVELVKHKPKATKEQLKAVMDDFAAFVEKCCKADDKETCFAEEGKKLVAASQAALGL
# [3] = target: T2, recombinant biotinylated CD137 protein (Fc-fusion protein, R&D Systems 838-4B) (human, UniProt Q07011 24-186, biotinylated, sites not stated); assay: ELISA, lysate on biotinylated CD137-Fc
# T2 construct: Bought Fc fusion; also called CD137-Fc
# Protocol: as §1
# [4] = target: T3, recombinant biotinylated human CD137 protein (Fc-fusion protein, R&D Systems 838-4B) (human, UniProt Q07011 24-186, biotinylated (site not stated)); assay: ELISA, bacterial lysate on plate-bound antigen, luminescence
# T3 construct: Bought Fc fusion; The ELISA used the same antigen as the panning; also called CD137-Fc; biotinylated CD137; not shown: Fc part of the bought fusion protein
# Protocol: as §1
# human serum albumin [5] = target: T4, human serum albumin (human, UniProt P02768 25-609); assay: as above
# T4 construct: Negative control antigen of the screening ELISA; also called HSA
# Protocol: as §1
# T4 sequence (P02768 25-609 limits assumed): as above
# [6] = target: unrelated Fc-fused recombinant protein (negative control); assay: as above
Binder,ELISA Fc Control (RLU) [1] [RLU],ELISA HSA (RLU) (human serum albumin [2]),ELISA CD137 (RLU) [3] [RLU],ELISA CD137-Fc (RLU) [4] [RLU],ELISA HSA (RLU) (human serum albumin [5]),ELISA Fc Control (RLU) [6] [RLU]
"ISOP193ER9P1G4 (designed binder, not shown: small tags and cut ends) LPAPKNLVVSRVTEDSARLSWTAPDAAFDSFDIYYFEHPVGGEAIVLTVPGSERSYDLTGLKPGTEYLVTIYGVKGGNFSFPLSAIFTT",1440,320,1.38e+07,,,
"ISOP193FR9P1G2 (designed binder, not shown: small tags and cut ends) LPAPKNLVVSRVTEDSARLSWTAPDAAFDSFTIYYFENENGGEAIVLTVPGSERSYDLTGLKPDTEYLVTIYGVKGGHWSRPLSAIFTT",2560,880,7.86e+06,,,
"ISOP193FR9P1A11 (designed binder, not shown: small tags and cut ends) LPAPKNLVVSRVTEDSARLSWTAPDAAFDSFAIQYWEGWEWGEAIVLTVPGSERSYDLTGLKPGTEYLVTIYGVKGGHWSRPLSAIFTT",3520,880,5.78e+06,,,
"ISOP193FR9P1G10 (designed binder, not shown: small tags and cut ends) LPAPKNLVVSRVTEDSARLSWTAPDAAFDSFTIYYFENENGGEAIVLTVPGSERSYDLTGLKPGTEYLVTIYGVKGGHWSRPLSAIFTT",2480,880,8.91e+06,,,
"ISOP120GR5P1H6 (designed binder, not shown: small tags and cut ends, FN3 domain (Centyrin); tested as E. coli lysate) LPAPKNLVVSRVTEDSARLSWTNEQITKYGFDSFLIQYQESEKVGEAIVLTVPGSERSYDLTGLKPGTEYTVSIYGVGRHYTVYDSNPLSAIFTT",,,,721000,400,400
"ISOP120AR5P1F11 (designed binder, not shown: small tags and cut ends, FN3 domain (Centyrin); tested as E. coli lysate) LPAPKNLVVSRVTEDSARLSWTNEQITKYGFDSFLIQYQESEKVGEAIVLTVPGSERSYDLTGLKPATEYTVSIYGVGRHYTVYDSNPLSAIFTT",,,,715000,320,480
"ISOP120GR5P1F5 (designed binder, not shown: small tags and cut ends, FN3 domain (Centyrin); tested as E. coli lysate) LPAPKNLVVSRVTEDSARLSWTAPDAAFDSFEIDYWEVESEGEAIVLFVPGSERSYDLTGLKPGTEYHVHIVGVKGGTPSYPLWADFTT",,,,1.28e+06,400,400
"ISOP120GR5P1E7 (designed binder, not shown: small tags and cut ends, FN3 domain (Centyrin); tested as E. coli lysate) LPAPKNLVVSRVTEDSARLSWTAPDAAFDSFEIDYWEVESEGEAIILFVPGSERSYDLTGLKPGTEYHVHIVGVKGGTPSYPLWADFTT",,,,1.13e+06,480,400
"ISOP193ER9P1F11 (designed binder, not shown: small tags and cut ends) LPAPKNLVVSRVTEDSARLSWTAPDAAFDSFAIQYQEYVAHGEAIVLTVPGSERSYDLTGLKPGTEYHVRISGVKGGGVSWPLSAISTT",2240,400,1.12e+07,,,
"ISOP193FR9P1D1 (designed binder, not shown: small tags and cut ends) LPAPKNLVVSRVTEDSARLSWTAPDAAFDSFFIQYLEDVTNGEAIVLTVPGSERSYDLTGLKPGTEYRVPIAGVKGGRDSQPLSAIFTT",1680,640,8.13e+06,,,
"ISOP193FR9P1E1 (designed binder, not shown: small tags and cut ends) LPAPKNLVVSRVTEDSARLSWTAPDAAFDSFIIRYLEDISYGEAIVLTVPGSERSYDLTGLKPGTEYHVGIEGVKGGNVSWPLSAIFTT",2000,880,1.16e+07,,,
"ISOP193ER9P1H3 (designed binder, not shown: small tags and cut ends) LPAPKNLVVSRVTEDSARLSWTAPDAAFDSFEIYYLEVRNRGEAIVLTVPGSERSYDLTGLKPGTEYHVGIAGVKGGFHSFPLSAIFTT",1520,400,1.05e+07,,,
"ISOP193GR9P1B3 (designed binder, not shown: small tags and cut ends) LPAPKNLVVSRVTEDSARLSWTAPDAAFDSFAIGYVEWTANGEAIVLIVPGSERSYDLTGLKPGTEYVVRIRGGVKGGDSSFPLRADFTT",880,320,3.46e+06,,,

# Continued, values first:
ELISA Fc Control (RLU) [1] [RLU],ELISA HSA (RLU) (human serum albumin [2]),ELISA CD137 (RLU) [3] [RLU],ELISA CD137-Fc (RLU) [4] [RLU],ELISA HSA (RLU) (human serum albumin [5]),ELISA Fc Control (RLU) [6] [RLU],Binder
3120,1520,1.63e+07,,,,"ISOP193HR9P1E8 (designed binder, not shown: small tags and cut ends) LPAPKNLVVSRVTEDSARLSWTAPDAAFDSFDIYYYELRLGGEAIVLTVPGSERSYDLTGLKPGTEYLVTIYGVKGGDYSPPLSAIFTT"
5680,1520,1.27e+07,,,,"ISOP193HR9P1A10 (designed binder, not shown: small tags and cut ends) LPAPKNLVVSRVTEDSARLSWTAPDAAFDSFDIYYLEPWGGGEAIVLTVPGSERSYDLTGLKPGTEYWVTIYGVKVCLGSNPLSAIFTT"
24200,3360,1.51e+07,,,,"ISOP193HR9P1G5 (designed binder, not shown: small tags and cut ends) LPAPKNLVVSRVTEDSARLSWTAPDAAFDSFDIYYYELRLGGEAIVLTVPGSERSYDLTGLKPGTEYLVTIYGVKGCAASDPLSAIFTT"
43900,10100,1.48e+07,,,,"ISOP193HR9P1H10 (designed binder, not shown: small tags and cut ends) LPAPKNLVVSRVTEDSARLSWTAPDAAFDSFDIYYYELRLGGEAIVLTVPGSERSYDLTGLKPGTEYLVTIYGVKVCLGSNPLSAIFTT"
8160,1200,1.15e+07,,,,"ISOP193HR9P1G6 (designed binder, not shown: small tags and cut ends) LPAPKNLVVSRVTEDSARLSWTAPDAAFDSFDIYYYELRLGGEAIVLTVPGSERSYDLTGLKPGTEYLVTIYGVKVCEQSYPLSAISTT"
49800,13700,4.6e+06,,,,"ISOP193HR9P1H7 (designed binder, not shown: small tags and cut ends) LPAPKNLVVSRVTEDSARLSWTAPDAAFDSFEIYYREPHYGGEAIVLTVPGSERSYDLTGLKPGTEYWVTIYGVKVCLGSNPLSAIFTT"
1280,960,1.58e+07,,,,"ISOP193HR9P1F10 (designed binder, not shown: small tags and cut ends) LPAPKNLVVSRVTEDSARLSWTAPDAAFDSFDIYYYELRLGGEAIVLTVPGSERSYDLTGLKPGTEYLVTIYGVKGGYYSGPLSAIFTT"
1360,800,1.56e+07,,,,"ISOP193HR9P1G10 (designed binder, not shown: small tags and cut ends) LPAPKNLVVSRVTEDSARLSWTAPDAAFDSFEIYYFELRLGGEAIVLTVPGSERSYDLTGLKPGTEYLVTIYGVKGGDYSPPLSAISTT"
1120,640,1.78e+07,,,,"ISOP193HR9P1E3 (designed binder, not shown: small tags and cut ends) LPAPKNLVVSRVTEDSARLSWTAPDAAFDSFEIYYFELRLGGEAIVLTVPGSERSYDLTGLKPGTEYLVTIYGVKGGAYSNPLSAIFTT"
31300,6080,1.61e+07,,,,"ISOP193HR9P1F8 (designed binder, not shown: small tags and cut ends) LPAPKNLVVSRVTEDSARLSWTAPDAAFDSFDIYYYELRLGGEAIVLTVPGSERSYDLTGLKPGTEYLVTIYGVKVCYYSTPLSAIFTT"
960,560,1.72e+07,,,,"ISOP193HR9P1G4 (designed binder, not shown: small tags and cut ends) LPAPKNLVVSRVTEDSARLSWTAPDAAFDSFEIYYFELRLGGEAIVLTVPGSERSYDLTGLKPGTEYLVTIYGVKGGDYSPPLSAIFTT"
1360,400,9.85e+06,,,,"ISOP193GR9P1F6 (designed binder, not shown: small tags and cut ends) LPAPKNLVVSRVTEDSARLSWTAPDAAFDSFEIDYWEVESEGEAIVLFVPGSERSYDLTGLKPGTEYHVHIVGVKGGTPSYPLWADFTT"
880,400,3.48e+06,,,,"ISOP193GR9P1F7 (designed binder, not shown: small tags and cut ends) LPAPKNLVVSRVTEDSARLSWTAPDAAFDSFDIPYVEYYPSGEAIVLNVPGSERSYDLTGLKPGTEYGVTIWGIKGGNESVPLTARFTT"
1360,480,1.05e+07,,,,"ISOP193GR9P1E10 (designed binder, not shown: small tags and cut ends) LPAPKNLVVSRVTEDSARLSWTAPDAAFDSFAISYTESIRQGEAIWLWVPGSERSYDLTGLKPGTEYEVTIGGVKGGIRSYPLWAWFTT"
960,480,3.05e+06,,,,"ISOP193GR9P1G9 (designed binder, not shown: small tags and cut ends) LPAPKNLVVSRVTEDSARLSWTAPDAAFDSFAIFYHEFANSGEAIDLPVPGSERSYDLTGLKPGTEYDVRIYGVKGGTASIPLDAEFTT"
1360,640,5.31e+06,,,,"ISOP193GR9P1H2 (designed binder, not shown: small tags and cut ends) LPAPKNLVVSRVTEDSARLSWTAPDAAFDSFEIPYIEVETIGEAIWLHVPGSERSYDLTGLKPGTEYSVGINGVKGGHTSNPLSARFTT"
